{"source": "FireProtDB (doi:10.1002/prot.20496)", "proteins": {"B1": {"name": "Alpha-lactalbumin wild type, P00712 (protein)", "chain": "MMSFVSLLLVGILFHATQAEQLTKCEVFQKLKDLKDYGGVSLPEWVCTAFHTSGYDTQAIVQNNDSTEYGLFQINNKIWCKDDQNPHSRNICNISCDKFLDDDLTDDIVCAKKILDKVGINYWLAHKALCSEKLDQWLCEKL"}}, "details": "Capra hircus, pH 7.5, Thermal, Tris-HCl 10 mM, CaCl2 2 mM, whole UniProt chain shown", "note": "Values joined by “and” are separate entries in the source; they are usually repeats but may differ in a detail not shown here. Equal entries are not always repeated.", "data": [{"protein": "B1", "values": [{"measurement": "Tm", "setting": "DSC", "result": "71 °C and 71.1 °C"}, {"measurement": "Tm", "setting": "Fluorescence", "result": "70.7 °C and 71.2 °C and 69.9 °C"}]}]}
